Assay [1] has as its target T1, TGF-β1蛋白 (UniProt P01137 279-390).
T1 construct: Bought protein
Description: ELISA, TGF-β1 coated at 100 ng/well, HRP goat anti-human Fab detection. (An ELISA detects its analyte on a solid surface through an enzyme-linked reagent.)

Assay [2] has as its target T1, TGF-β1蛋白. Description: cell-based or functional assay.
Another assay has as its target T2, VEGF-A165 (UniProt P15692-4 27-191).
T2 construct: Isoform VEGF-A165; also called VEGF蛋白
Description: ELISA, VEGF coated at 100 ng/well, HRP goat anti-human Fab detection.

T1 sequence (P01137 279-390 limits assumed): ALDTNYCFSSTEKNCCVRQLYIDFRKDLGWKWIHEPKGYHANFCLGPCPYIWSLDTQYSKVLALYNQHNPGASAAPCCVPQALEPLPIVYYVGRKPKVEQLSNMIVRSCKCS
T2 sequence (P15692 other isoform, or with tags, fused parts or gaps limits assumed): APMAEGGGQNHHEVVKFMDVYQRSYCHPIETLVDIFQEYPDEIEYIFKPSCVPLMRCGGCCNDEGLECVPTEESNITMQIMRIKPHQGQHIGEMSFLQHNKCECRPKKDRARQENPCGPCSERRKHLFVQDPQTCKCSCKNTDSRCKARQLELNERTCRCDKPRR

B1: 抗TGF-β单抗12.7 (antibody, human IgG4 S228P, kappa, V domains shown)
VH: QVQLVQSGAEVKKPGASVKVSCKASGYTFTSEWMNWVRQAPGQGLEWMGQIFPALGSTNYNEMYEGRVTMTTDTSTSTAYMELRSLRSDDTAVYYCARGIGNYALDAMDYWGQGTLVTVSS
VL: DIQMTQSPSSLSASVGDRVTITCRASESVDFYGNSFMHWYQQKPGKAPKLLIYLASNLESGVPSRFSGSGSGTDFTLTISSLQPEDFATYYCQQNIEDPLTFGGGTKVEIKR
notes: also called mAb127
B1: the EC50 with TGF-β1蛋白 [1] came to 0.202 nM. For the same molecule, in the assay with TGF-β1蛋白 [2], the “SMAD3报告基因抑制实验 IC50” value was 0.337 nM. Besides, in the assay with VEGF-A165, the binding result is “no binding (tested: 200nM)”.

Broadly, the EC50 is the concentration giving half of the maximal effect.

Source of the values: patent publication CN115707716A (DANSHENG MEDICAL TECH SHANGHAI CO LTD, dated 2023).
